Source: paper PMC3591345, “A Novel Single-Strand Specific 3′–5′ Exonuclease Found in the Hyperthermophilic Archaeon, Pyrococcus furiosus”
Blank lines part the entries; values can stand above or below the molecule they belong to.

Legend:
[1] = molecular target: PfuExo I (recombinant protein encoded by PF2046) (Pyrococcus furiosus) (UniProt Q8TZE9); test: SEC; analytical gel filtration, SMART system, Superdex 200 3.2/30; 20 µM PfuExo I; 50 mM Tris-HCl pH 8.0, 0.5 mM DTT, 0.1 mM EDTA, 10% glycerol, 0.15 M NaCl; mass estimated against marker proteins
PfuExo I = molecular target: T1, PfuExo I (Pyrococcus furiosus, UniProt Q8TZE9 1-229); test: EMSA; no Mg2+, 0.1 mM EDTA; 1-1000 nM protein; 0.1% glutaraldehyde fixation; one shifted band; 20 mM triethanolamine (pH not stated), 50 mM NaCl, 0.1 mg/ml BSA, 0.1 mM EDTA, 2.5 nM DNA, 20 min at 37 C, then 0.1% glutaraldehyde; 4.5% native PAGE; settings: protein: recombinant, chain copies: 3, label: 32P (5')
T1 sequence: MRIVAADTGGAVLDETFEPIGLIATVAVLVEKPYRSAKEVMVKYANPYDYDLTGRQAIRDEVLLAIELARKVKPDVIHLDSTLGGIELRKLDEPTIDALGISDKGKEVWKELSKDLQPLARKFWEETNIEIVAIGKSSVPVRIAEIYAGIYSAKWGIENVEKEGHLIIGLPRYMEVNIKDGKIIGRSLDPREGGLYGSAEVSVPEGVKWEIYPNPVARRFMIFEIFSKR

stoichiometry N [1]: 3
Molecule: PfuExo I (recombinant protein encoded by PF2046) (from UniProt Q8TZE9 1-229) (enzyme)

B1: 5'-overhang DNA d49F/d27 (dsDNA)
DNA 1: AGCTACCATGCCTGCACGAATTAAGCAATTCGTAATCATGGTCATAGCT
DNA 2: AGCTATGACCATGATTACGAATTGCTT
binding result (PfuExo I; 5' overhang 22 nt): binds

B2: 3'-overhang DNA d49F/d22 (dsDNA)
DNA 1: B1 DNA 1
DNA 2: AATTCGTGCAGGCATGGTAGCT
binding result (PfuExo I; 3' overhang 27 nt): binds
